First the molecules themselves.
B1: nanobody clone C2 (VHH)
VHH: QVQLQESGGGLVQAGGSLRLSCAASGSISVVYGMGWYRQAPGKEREFVAGISYGGSTYYADSVKGRFTISRDNAKNTVYLQMNSLKPEDTAVYYCAVDASYWDTLVYWGQGTQVTVSS
B2: nanobody clone C5 (VHH)
VHH: QVQLQESGGGLVQAGGSLRLSCAASGNISTGTAMGWYRQAPGKEREFVAGIAYGATTYYADSVKGRFTISRDNAKNTVYLQMNSLKPEDTAVYYCAVEVSQSTPGGRYSVAYLIYWGQGTQVTVSS
B3: nanobody clone B4 (VHH)
VHH: QVQLQESGGGLVQAGGSLRLSCAASGNISVWIPMGWYRQAPGKEREFVASIGEGSTTYYADSVKGRFTISRDNAKNTVYLQMNSLKPEDTAVYYCAVPYYGHSDYDYWGQGTQVTVSS
B4: nanobody clone A8 (VHH)
VHH: QVQLQESGGGLVQAGGSLRLSCAASGTIFEERVMGWYRQAPGKEREFVAGIASGAITYYADSVKGRFTISRDNAKNTVYLQMNSLKPEDTAVYYCAAQGYSFKTKPDYSAYVLVYWGQGTQVTVSS
B5: nanobody clone B1 (VHH)
VHH: QVQLQESGGGLVQAGGSLRLSCAASGTIFYSSDMGWYRQAPGKEREFVAGINRGSTTYYADSVKGRFTISRDNAKNTVYLQMNSLKPEDTAVYYCAVVSDVLTRLFYWGQGTQVTVSS
B6: nanobody clone A9 (VHH)
VHH: QVQLQESGGGLVQAGGSLRLSCAASGTISQDSGMGWYRQAPGKEREFVAGITAGSITYYADSVKGRFTISRDNAKNTVYLQMNSLKPEDTAVYYCAASYVSVQAHTYWGQGTQVTVSS
B7: nanobody clone C4 (VHH)
VHH: QVQLQESGGGLVQAGGSLRLSCAASGSISGDVEMGWYRQAPGKEREFVAGINDGGNTYYADSVKGRFTISRDNAKNTVYLQMNSLKPEDTAVYYCAVSTTYPSYNESQYADWLAYWGQGTQVTVSS
B8: nanobody clone A7 (VHH)
VHH: QVQLQESGGGLVQAGGSLRLSCAASGNIFYTYSMGWYRQAPGKEREFVAAISAGTITYYADSVKGRFTISRDNAKNTVYLQMNSLKPEDTAVYYCAVFAPRDVIHYYWGQGTQVTVSS

Data on 8 molecules can be found in US20250163146A1 (H LEE MOFFITT CANCER CENTER AND RESEARCH INSTITUTE, published 2025).

T3 sequence (Q9NR61 27-401 limits assumed): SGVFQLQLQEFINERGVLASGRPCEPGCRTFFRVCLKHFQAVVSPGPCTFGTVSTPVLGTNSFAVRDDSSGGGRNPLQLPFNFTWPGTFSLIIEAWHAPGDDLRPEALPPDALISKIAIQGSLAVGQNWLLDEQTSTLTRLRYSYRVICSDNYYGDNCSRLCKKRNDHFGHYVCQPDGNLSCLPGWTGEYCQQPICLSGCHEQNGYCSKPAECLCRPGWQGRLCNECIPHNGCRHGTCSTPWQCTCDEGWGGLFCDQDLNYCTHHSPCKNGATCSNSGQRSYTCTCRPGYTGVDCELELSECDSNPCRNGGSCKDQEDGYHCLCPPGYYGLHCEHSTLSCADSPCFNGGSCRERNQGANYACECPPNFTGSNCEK

For one experiment, the target named is T1, biotinylated murine DLL4 protein, truncation containing the C2, DSL, and EGF1-3 domains (DLL4 (N-EGF3)) (mouse, UniProt Q9JI71 27-324, limits assumed, biotinylated (site not stated)).
T1 construct: domain: C2, DSL, and EGF1-3 domains (N-EGF3); also called mDLL4; mouse DLL4
T1 sequence (Q9JI71 27-324 limits assumed): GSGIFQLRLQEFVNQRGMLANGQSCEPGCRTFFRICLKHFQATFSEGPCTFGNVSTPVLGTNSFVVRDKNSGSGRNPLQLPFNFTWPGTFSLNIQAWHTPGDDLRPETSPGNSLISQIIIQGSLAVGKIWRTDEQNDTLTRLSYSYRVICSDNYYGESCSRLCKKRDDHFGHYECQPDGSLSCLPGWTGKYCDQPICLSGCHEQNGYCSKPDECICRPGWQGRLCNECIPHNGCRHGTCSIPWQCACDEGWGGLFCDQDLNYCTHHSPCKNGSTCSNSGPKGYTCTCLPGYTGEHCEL
Briefly: yeast display, flow cytometry (FIG. 1). The protocol: (§1) 162. To isolate binding molecules that interrupted the interaction of DLL4 and Notch1, we performed several rounds of selection using decreasing concentrations of biotinylated murine DLL4 protein. The mDLL4 protein was a truncation that contained the C2, DSL, and EGF1-3 domains (DLL4 (N-EGF3)). To perform a selection, the library was stained with biotinylated mDLL4, washed, incubated with streptavidin-647, washed, and then binders isolated selected using either (a) magnetic beads coated with an anti-647 antibody or (b) FACS. The mDLL4-binding yeast were then plated so that individual colonies could be picked and cultured to isolate individual clones. The clones were then each stained with mDLL4 and SA-647 and analyzed by flow cytometry to confirm that they bound to mDLL4. (FIG. 1).
For B1, the binding result is recorded as “binds”.

Consider B2, for which the binding result is “binds”.

Regarding B3, the binding result is reported as “binds”.

Turning to B4, the binding result is “binds”.

For B5, the binding result is given as “binds”.

As to B6, the binding result is reported as “binds”.

As to B7, the binding result is “binds”.

Another experiment addresses T1, biotinylated murine DLL4 protein, …. Briefly: yeast display, biotinylated mDLL4 + SA-647, flow cytometry. The protocol:
as §1
As for B8, the binding result is “binds”.

For another experiment, the target named is T2, human DLL4 (N-EGF3) (human, UniProt Q9NR61 27-323, limits assumed, biotinylated (site not stated); used unlabeled in the complex with biotinylated hNotch1 (6-13)).
T2 construct: domain: N-EGF3; also called hDLL4; hDLL4 (N-3)
T2 sequence (Q9NR61 27-323 limits assumed): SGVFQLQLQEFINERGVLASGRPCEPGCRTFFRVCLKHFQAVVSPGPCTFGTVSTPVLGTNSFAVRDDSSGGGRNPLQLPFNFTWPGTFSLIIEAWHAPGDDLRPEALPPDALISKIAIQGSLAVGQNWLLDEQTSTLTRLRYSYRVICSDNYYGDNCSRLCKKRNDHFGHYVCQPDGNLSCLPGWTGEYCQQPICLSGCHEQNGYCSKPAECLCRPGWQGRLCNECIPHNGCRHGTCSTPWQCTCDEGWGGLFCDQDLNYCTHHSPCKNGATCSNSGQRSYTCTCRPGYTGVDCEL
Briefly: yeast display, biotinylated human DLL4 (N-EGF3), SA-647, flow cytometry. On the procedure: (§2) The eight anti-DLL4 nanobody clones were then tested for cross-reactivity between human and mouse DLL4. Yeast cells expressing each nanobody were stained with biotinylated human DLL4 (N-EGF3), washed, stained with SA-647, and then analyzed by flow cytometry.
On to B1, for which the binding result is on record as “no binding”.

Turning to B3, the binding result is “no binding”.

Regarding B4, the binding result was “no binding”.

On to B6, for which the binding result was “no binding”.

The target in a further experiment is T2, human DLL4 (N-EGF3). The experiment is described as follows: yeast display, biotinylated human DLL4 (N-EGF3) + SA-647, flow cytometry. On the procedure: as §2
Consider B2, for which the binding result is recorded as “binds”.

For B5, the binding result is listed as “binds”.

As to B8, the binding result is “binds”.

Regarding B7, the binding result was “binds”.

The next experiment addresses T3, human DLL4 (N-terminus to EGF5) (human, UniProt Q9NR61 27-401, limits assumed, biotinylated in the flow cytometry titration (site not stated); not stated for the plate-coated protein).
T3 construct: domain: N-terminus to EGF5 (C2, DSL, and EGF1-5 domains); also called recombinant human DLL4 protein containing the C2, DSL, and EGF1-5 domains
The experiment is described as follows: nanobody incubated with increasing concentrations of biotinylated human DLL4 (N-terminus to EGF5), streptavidin Alexa Fluor 647, flow cytometry. The protocol: 166. To determine the ability of the C4 and C5 nanobodies to bind DLL4, C4 and C5 nanobodies were incubated with increasing concentrations of biotinylated human DLL4 (N-terminus to EGF5) and binding was detected using streptavidin labeled with Alexa Fluor 647. Fluorescence was then monitored by flow cytometry and EC50 values were calculated for each nanobody (FIG. 5).
As to B2, the binding result is “binds”.

On to B7, for which the binding result is “binds”.
